Measurements reported in paper PMC7930613, “Exploring the Potential of Cytochrome P450 CYP109B1 Catalyzed Regio—and Stereoselective Steroid Hydroxylation” (Frontiers in Chemistry, 2021).

Key:
Experiment in all cases: HPLC, steroid hydroxylation rate, hyperbolic fit
Format in all cases: biochemical, Bacillus subtilis
Settings in all cases: 1 mM NADPH, redox partners Fdr_0978 (4 μM) and Fdx_1499 (20 μM), 2 mM MgCl2, pH 8.0, 30°C
[1] = tested on: C[C@]12CC[C@H]3[C@@H](CCC4=CC(=O)C=C[C@@]43C)[C@@H]1CC[C@@H]2O
Excerpt: (§1) HPLC, steroid hydroxylation rate, hyperbolic fit on CYP109B1

[2] = tested on: T1, C[C@]12CC[C@H]3[C@@H](CCC4=CC(=O)CC[C@@H]43)[C@@H]1CC[C@@H]2O
T1 construct: assayed with separate redox partners Fdr_0978/Fdx_1499
Excerpt: as §1

[3] = tested on: C[C@]12CC[C@H]3[C@@H](CCC4=CC(=O)CC[C@@]43C)[C@@H]1CC[C@@H]2O
Excerpt: as §1

[4] = tested on: T2, [H][C@@]12CC[C@H](O)[C@@]1(C)CCC1=C3CCC(=O)C=C3CC[C@]12[H]
T2 construct: assayed with separate redox partners Fdr_0978/Fdx_1499
Excerpt: as §1

## CYP109B1 (Bacillus subtilis subsp. subtilis str. 168)
[1]
  Km: 193.1 ± 38.2 µM
  kcat: 0.0583 ± 0.00333 s⁻¹
  kcat/Km: 300 M⁻¹ s⁻¹
[2]
  Km: 136.3 ± 18.4 µM
  kcat: 0.0717 ± 0.00167 s⁻¹
  kcat/Km: 517 M⁻¹ s⁻¹
[3]
  Km: 83.7 ± 20.4 µM
  kcat: 0.0783 ± 0.005 s⁻¹
  kcat/Km: 933 M⁻¹ s⁻¹
[4]
  Km: 163.1 ± 38.4 µM
  kcat: 0.197 ± 0.0117 s⁻¹
  kcat/Km: 1200 M⁻¹ s⁻¹
